The target in the assay is T1, human IL-6 (human, UniProt P05231 30-212).
T1 construct: the protein used was bought recombinant human IL-6 (R&D Systems), in part biotinylated; also called rhIL-6; hIL-6
Nature of the assay: panning and screening on IL-6.

B1: SEQ ID NO 749 (designed binder)
chain: CGASEFRCDSGHCISPDWRCDGDNDCVDGSDEKSCEQRTCLPSQFQCGSGYCFSQRWVCDGENDCEDGSDEANCAGSVPT
For the molecule B1, the binding result is reported as “binds”.

B2: SEQ ID NO 715 (designed binder)
chain: CLADQFKCHNTNICIPGRLGCDGDPDCEDDSDEKGCPPHTCLPSQFQCGSGYCISQRWVCDGENDCEDSSDEANCAGSVPT
As for B2, the binding result is listed as “binds”.

B3: SEQ ID NO 768 (designed binder)
chain: CASNEFPCSNGNCIPGPLRCDGVNDCEDNSDESPLWPLHTCLPSQFQCGSGYCISQRWVCDGENDCEDSSDEANCAGSVPT
Turning to B3, the binding result was “binds”.

B4: SEQ ID NO 735 (designed binder)
chain: CAANEFRCRSTNTCIPQQWLCDGVNDCQDDSDEKSCRTPAPTCLPSQFQCGSGYCISQRWVCDGENDCEDSSDEANCAGSVPT
Consider B4, for which the binding result is given as “binds”.

B5: SEQ ID NO 725 (designed binder)
chain: CLANEFRCSSGQCIPARWLCDGVNDCVDDSDEKDCPARTCLPSQFQCGSGYCISQRWVCDGENDCEDSSDEANCAGSVPT
As for B5, the binding result is given as “binds”.

B6: SEQ ID NO 720 (designed binder)
chain: CLASQFRCGNGSCLSQTLLCDGVNDCADNSDEVSCPPPTCLPSQFQCGSGYCISQRWVCDGENDCEDSSDEANCAGSVPT
As to B6, the binding result was “binds”.

B7: SEQ ID NO 726 (designed binder)
chain: CLPGQFRCHSTDTCLPESWVCDGVNDCADDSDEASCPPHTCLPSQFQCGSGYCISQRWVCDGENDCEDSSDEANCAGSVPT
For B7, the binding result was “binds”.

B8: SEQ ID NO 758 (designed binder)
chain: CRPSQFQCQNSSRCIPLGWRCDGDNDCEDGSDEKDCTATARTCLPDQFQCGSGYCLPQAWVCDGENDCEDGSDETNCPART
On to B8, for which the binding result is listed as “binds”.

B9: SEQ ID NO 751 (designed binder)
chain: CLPSQFQCGSGYCISQRWVCDGENDCEDSSDEANCAGSVPTCLPSEFQCGNGRCLPLRLLCDGDDDCGDNSDEPLATCETSAPT
Turning to B9, the binding result was “binds”.

B10: SEQ ID NO 745 (designed binder)
chain: CPPGEFKCNSGNCVSPTWGCDGVDDCGDDSDEASAICEAPEHTCLPSQFQCGSGYCISQRWVCDGENDCEDSSDEANCAGSVPT
Turning to B10, the binding result is “binds”.

B11: SEQ ID NO 716 (designed binder)
chain: CPPGEFPCSSGHCLSQALRCDGVPDCEDDSDETGCPPPTCLPSQFQCGSGYCISQRWVCDGENDCEDSSDEANCAGSVPT
Turning to B11, the binding result is given as “binds”.

B12: SEQ ID NO 730 (designed binder)
chain: CAPSQFRCESGQCLPANWRCDGENDCQDGSDESPAICEGTAPTCLPSQFQCGSGYCISQRWVCDGENDCEDSSDEANCAGSVPT
For the molecule B12, the binding result is recorded as “binds”.

B13: SEQ ID NO 764 (designed binder)
chain: CEAGEFRCRNGSCIPEAWGCDGVNDYLDNSDETNCPAHTCLSSEFQCGSGYCISQRWVCDGENDCEDSSDEANCAGSVPT
Regarding B13, the binding result is given as “binds”.

B14: SEQ ID NO 743 (designed binder)
chain: CVPSQFQCRNNGICIPQNWHCDGVPDCEDSSDEESCGTTVHTCLPSQFQCGSGYCISQRWVCDGENDCEDSSDEANCAGSVPT
On to B14, for which the binding result is recorded as “binds”.

B15: SEQ ID NO 754 (designed binder)
chain: CPPSQFPCNSGNCVSAAWVCDGVDDCGDDSDESLAICPTSTCLPDQFQCGSGYCLPQRWVCDGVDDCEDSSDEKGCTPHT
For B15, the binding result is given as “binds”.
